From patent US20240124553A1

Columns and labels:
Experiment in all cases: flow cytometry, transfected 293T cells
[1] = target: CHIKV E2-E1 envelope glycoproteins (strain S27), E2 mutant A41S (chikungunya virus strain S27) (UniProt Q8JUX5)
[2] = target: CHIKV E2-E1 envelope glycoproteins (strain S27), E2 mutant A78S (chikungunya virus strain S27) (UniProt Q8JUX5)
[3] = target: CHIKV E2-E1 envelope glycoproteins (strain S27), E2 mutant A81S (chikungunya virus strain S27) (UniProt Q8JUX5)
[4] = target: CHIKV E2-E1 envelope glycoproteins (strain S27), E2 mutant D117A (chikungunya virus strain S27) (UniProt Q8JUX5)
[5] = target: CHIKV E2-E1 envelope glycoproteins (strain S27), E2 mutant D59A (chikungunya virus strain S27) (UniProt Q8JUX5)
[6] = target: CHIKV E2-E1 envelope glycoproteins (strain S27), E2 mutant D63A (chikungunya virus strain S27) (UniProt Q8JUX5)
[7] = target: CHIKV E2-E1 envelope glycoproteins (strain S27), E2 mutant E40A (chikungunya virus strain S27) (UniProt Q8JUX5)
[8] = target: CHIKV E2-E1 envelope glycoproteins (strain S27), E2 mutant F100A (chikungunya virus strain S27) (UniProt Q8JUX5)
[9] = target: CHIKV E2-E1 envelope glycoproteins (strain S27), E2 mutant F84A (chikungunya virus strain S27) (UniProt Q8JUX5)
[10] = target: CHIKV E2-E1 envelope glycoproteins (strain S27), E2 mutant G44A (chikungunya virus strain S27) (UniProt Q8JUX5)
[11] = target: CHIKV E2-E1 envelope glycoproteins (strain S27), E2 mutant G55A (chikungunya virus strain S27) (UniProt Q8JUX5)
[12] = target: CHIKV E2-E1 envelope glycoproteins (strain S27), E2 mutant G57A (chikungunya virus strain S27) (UniProt Q8JUX5)
[13] = target: CHIKV E2-E1 envelope glycoproteins (strain S27), E2 mutant G82A (chikungunya virus strain S27) (UniProt Q8JUX5)
[14] = target: CHIKV E2-E1 envelope glycoproteins (strain S27), E2 mutant G95A (chikungunya virus strain S27) (UniProt Q8JUX5)
[15] = target: CHIKV E2-E1 envelope glycoproteins (strain S27), E2 mutant H130A (chikungunya virus strain S27) (UniProt Q8JUX5)
[16] = target: CHIKV E2-E1 envelope glycoproteins (strain S27), E2 mutant H62A (chikungunya virus strain S27) (UniProt Q8JUX5)
[17] = target: CHIKV E2-E1 envelope glycoproteins (strain S27), E2 mutant H73A (chikungunya virus strain S27) (UniProt Q8JUX5)
[18] = target: CHIKV E2-E1 envelope glycoproteins (strain S27), E2 mutant H99A (chikungunya virus strain S27) (UniProt Q8JUX5)
[19] = target: CHIKV E2-E1 envelope glycoproteins (strain S27), E2 mutant I93A (chikungunya virus strain S27) (UniProt Q8JUX5)
[20] = target: CHIKV E2-E1 envelope glycoproteins (strain S27), E2 mutant K107A (chikungunya virus strain S27) (UniProt Q8JUX5)
[21] = target: CHIKV E2-E1 envelope glycoproteins (strain S27), E2 mutant K47A (chikungunya virus strain S27) (UniProt Q8JUX5)
[22] = target: CHIKV E2-E1 envelope glycoproteins (strain S27), E2 mutant Q49A (chikungunya virus strain S27) (UniProt Q8JUX5)
[23] = target: CHIKV E2-E1 envelope glycoproteins (strain S27), E2 mutant R104A (chikungunya virus strain S27) (UniProt Q8JUX5)
[24] = target: CHIKV E2-E1 envelope glycoproteins (strain S27), E2 mutant R38A (chikungunya virus strain S27) (UniProt Q8JUX5)
[25] = target: CHIKV E2-E1 envelope glycoproteins (strain S27), E2 mutant R86A (chikungunya virus strain S27) (UniProt Q8JUX5)
[26] = target: CHIKV E2-E1 envelope glycoproteins (strain S27), E2 mutant S122A (chikungunya virus strain S27) (UniProt Q8JUX5)
[27] = target: CHIKV E2-E1 envelope glycoproteins (strain S27), E2 mutant T112A (chikungunya virus strain S27) (UniProt Q8JUX5)
[28] = target: CHIKV E2-E1 envelope glycoproteins (strain S27), E2 mutant T45A (chikungunya virus strain S27) (UniProt Q8JUX5)
[29] = target: CHIKV E2-E1 envelope glycoproteins (strain S27), E2 mutant T58A (chikungunya virus strain S27) (UniProt Q8JUX5)
[30] = target: CHIKV E2-E1 envelope glycoproteins (strain S27), E2 mutant T87A (chikungunya virus strain S27) (UniProt Q8JUX5)
[31] = target: CHIKV E2-E1 envelope glycoproteins (strain S27), E2 mutant T94A (chikungunya virus strain S27) (UniProt Q8JUX5)
[32] = target: CHIKV E2-E1 envelope glycoproteins (strain S27), E2 mutant V50A (chikungunya virus strain S27) (UniProt Q8JUX5)
[33] = target: CHIKV E2-E1 envelope glycoproteins (strain S27), E2 mutant W64A (chikungunya virus strain S27) (UniProt Q8JUX5)

| Substance | Binding Reactivity (% WT) [1] [% WT] | Binding Reactivity (% WT) [2] [% WT] | Binding Reactivity (% WT) [3] [% WT] | Binding Reactivity (% WT) [4] [% WT] | Binding Reactivity (% WT) [5] [% WT] | Binding Reactivity (% WT) [6] [% WT] | Binding Reactivity (% WT) [7] [% WT] | Binding Reactivity (% WT) [8] [% WT] | Binding Reactivity (% WT) [9] [% WT] | Binding Reactivity (% WT) [10] [% WT] | Binding Reactivity (% WT) [11] [% WT] | Binding Reactivity (% WT) [12] [% WT] | Binding Reactivity (% WT) [13] [% WT] | Binding Reactivity (% WT) [14] [% WT] | Binding Reactivity (% WT) [15] [% WT] | Binding Reactivity (% WT) [16] [% WT] | Binding Reactivity (% WT) [17] [% WT] | Binding Reactivity (% WT) [18] [% WT] | Binding Reactivity (% WT) [19] [% WT] | Binding Reactivity (% WT) [20] [% WT] | other results |
| --- | --- | --- | --- | --- | --- | --- | --- | --- | --- | --- | --- | --- | --- | --- | --- | --- | --- | --- | --- | --- | --- |
| CHIKV mAb C9 (antibody) | 70.7 | 84.1 | 86.6 | 74.4 | 71.8 | 71.8 | 107 | 34.2 | 76.2 | 72.5 | 75.9 | 109 | 90.2 | 86.2 | 106 | 93.1 | 89.6 | 57.4 | 10.4 | 95.6 | Binding Reactivity (% WT) [21]: 84 % WT; Binding Reactivity (% WT) [22]: 47 % WT; Binding Reactivity (% WT) [23]: 91.6 % WT; Binding Reactivity (% WT) [24]: 86.3 % WT; Binding Reactivity (% WT) [25]: 121 % WT; Binding Reactivity (% WT) [26]: 98.7 % WT; Binding Reactivity (% WT) [27]: 50.5 % WT; Binding Reactivity (% WT) [28]: 71.7 % WT; Binding Reactivity (% WT) [29]: 98.6 % WT; Binding Reactivity (% WT) [30]: 20.7 % WT; Binding Reactivity (% WT) [31]: 116 % WT; Binding Reactivity (% WT) [32]: 76.7 % WT; Binding Reactivity (% WT) [33]: 60.6 % WT |
| CHIKV mAb CHKV-88 (antibody) | 89.8 | 126 | 82.3 | 103 | 86.1 | 85 | 108 | 69.1 | 83.9 | 98.1 | 111 | 134 | 91.5 | 89 | 110 | 101 | 91.8 | 85.6 | 29.1 | 99.2 | Binding Reactivity (% WT) [21]: 100 % WT; Binding Reactivity (% WT) [22]: 87.1 % WT; Binding Reactivity (% WT) [23]: 76 % WT; Binding Reactivity (% WT) [24]: 99.6 % WT; Binding Reactivity (% WT) [25]: 110 % WT; Binding Reactivity (% WT) [26]: 84.3 % WT; Binding Reactivity (% WT) [27]: 71.6 % WT; Binding Reactivity (% WT) [28]: 85.7 % WT; Binding Reactivity (% WT) [29]: 81.2 % WT; Binding Reactivity (% WT) [30]: 52.9 % WT; Binding Reactivity (% WT) [31]: 109 % WT; Binding Reactivity (% WT) [32]: 78.6 % WT; Binding Reactivity (% WT) [33]: 126 % WT |
| CHIKV mAb IM-CKV063 (antibody) | 51.1 | 99.1 | 93 | 74.2 | 81.1 | 65.8 | 106 | 33.6 | 61.7 | 68.2 | 83.3 | 96.5 | 91.1 | 88.9 | 91 | 79.6 | 84.2 | 63.8 | 8.4 | 86.8 | Binding Reactivity (% WT) [21]: 72.1 % WT; Binding Reactivity (% WT) [22]: 55.4 % WT; Binding Reactivity (% WT) [23]: 75.7 % WT; Binding Reactivity (% WT) [24]: 94.7 % WT; Binding Reactivity (% WT) [25]: 127 % WT; Binding Reactivity (% WT) [26]: 82.8 % WT; Binding Reactivity (% WT) [27]: 43.1 % WT; Binding Reactivity (% WT) [28]: 62.1 % WT; Binding Reactivity (% WT) [29]: 88.7 % WT; Binding Reactivity (% WT) [30]: 18.8 % WT; Binding Reactivity (% WT) [31]: 95.5 % WT; Binding Reactivity (% WT) [32]: 64.1 % WT; Binding Reactivity (% WT) [33]: 69.1 % WT |
| CHIKV mAb IM-CKV065 (antibody) | 33.8 | 107 | 96.6 | 70.9 | 72.8 | 64.8 | 124 | 15.1 | 51.6 | 50.4 | 86.2 | 108 | 104 | 92.6 | 104 | 88.5 | -0.9 | 27.5 | -0.9 | 95.2 | Binding Reactivity (% WT) [21]: 85.5 % WT; Binding Reactivity (% WT) [22]: 37.3 % WT; Binding Reactivity (% WT) [23]: 66.9 % WT; Binding Reactivity (% WT) [24]: 133 % WT; Binding Reactivity (% WT) [25]: 102 % WT; Binding Reactivity (% WT) [26]: 91.1 % WT; Binding Reactivity (% WT) [27]: 16.2 % WT; Binding Reactivity (% WT) [28]: 62.4 % WT; Binding Reactivity (% WT) [29]: 93.5 % WT; Binding Reactivity (% WT) [30]: 7.6 % WT; Binding Reactivity (% WT) [31]: 102 % WT; Binding Reactivity (% WT) [32]: 48.2 % WT; Binding Reactivity (% WT) [33]: 86.3 % WT |
| Mxra8-Fc (mouse Mxra8 extracellular domain fused to mouse IgG2b Fc) (Fc fusion) | 4.9 | 106 | 85.2 | -0.3 | 78.9 | 85 | 86.2 | 26.2 | 77.6 | 72.2 | 101 | 106 | 123 | 94.6 | 101 | 102 | 102 | 58.1 | 14.6 | 84.6 | Binding Reactivity (% WT) [21]: 102 % WT; Binding Reactivity (% WT) [22]: 56.8 % WT; Binding Reactivity (% WT) [24]: 90.7 % WT; Binding Reactivity (% WT) [25]: 91.5 % WT; Binding Reactivity (% WT) [26]: 101 % WT; Binding Reactivity (% WT) [27]: 44.2 % WT; Binding Reactivity (% WT) [28]: 81.2 % WT; Binding Reactivity (% WT) [29]: 94.1 % WT; Binding Reactivity (% WT) [30]: 23.5 % WT; Binding Reactivity (% WT) [31]: 99.7 % WT; Binding Reactivity (% WT) [32]: 67.8 % WT; Binding Reactivity (% WT) [33]: 17.7 % WT |
